Key:
crystal structure [1] = biological target: the molecule itself; experiment: crystal structure
crystal structure [2] = biological target: the molecule itself; experiment: crystal structure; remark: listed apart in the source

B1: HR1 (heptad repeat 1) region of the MHV A59 spike protein, residues 968-1027 (domain or fragment)
chain: ENQKMIASAFNNALGAIQDGFDATNSALGKIQSVVNANAEALNNLLNQLSNRFGAISASL
stoichiometry N (crystal structure [1]): 3

B2: nMHV 2-Helix (new construct of the MHV fusion core: shortened HR1, 22-residue linker, HR2) (domain or fragment)
chain: ENQKMIASAFNNALGAIQDGFDATNSALGKIQSVVNANAEALNNLLNQLSLVPRGSGGSGGSGGLEVLFQGPDLSLDFEKLNVTLLDLTYEMNRIQDAIKKLNESYINLKE
binding result (crystal structure [2]): binds

ENQKMIASAFNNALGAIQDGFDATNSALGKIQSVVNANAEALNNLLNQLS (domain or fragment) [shortened HR1 region of the MHV A59 spike protein, residues 968-1017]
binding result (crystal structure [2]): binds

Source: PMC7982547 (The Journal of Biological Chemistry, 2004)
